According to publication PMC6048173, “Structural Insight into Substrate Specificity of 3-Hydroxypropionyl-Coenzyme A Dehydratase from Metallosphaera sedula” (Scientific Reports, 2018):

Assays:
[1] = target: 3-Hydroxypropionyl-CoA dehydratase from Metallosphaera sedula (Metallosphaera sedula); experiment: SEC; analytical, Superdex increase 200 10/300 GL, 40 mM Tris-HCl pH 8.0, 150 mM NaCl; 1 mL of 1 mg/mL protein; calibrated with ferritin, conalbumin, carbonic anhydrase, ribonuclease A
[2] = target: 3-Hydroxypropionyl-CoA dehydratase from Metallosphaera sedula (Metallosphaera sedula); experiment: crystal structure; Ms3HPCD in complex with CoA, 1.8 Å, space group P21, six monomers in the asymmetric unit; crystals from 10% PEG 8000, 0.1 M sodium-potassium phosphate pH 6.2, 0.2 M NaCl, 10 mM EDTA, 20 °C
[3] = target: T1, 3-Hydroxypropionyl-CoA dehydratase (Ms3HPCD; 3HPCD; 3-HPCD) (Metallosphaera sedula, UniProt A4YI89); experiment: X-ray crystal structure, […] Å; conditions: co-purified, CoA not added during expression or purification; substrate binding site between two monomers; crystals at pH 6.2, 20 °C
T1 construct: gene Msed_2001; Met1-Lys256, C-terminal 6xHis tag (pET30a), expressed in E. coli BL21(DE3)-T1R; hexamer (dimer of trimers)
T1 sequence (A4YI89 whole entry): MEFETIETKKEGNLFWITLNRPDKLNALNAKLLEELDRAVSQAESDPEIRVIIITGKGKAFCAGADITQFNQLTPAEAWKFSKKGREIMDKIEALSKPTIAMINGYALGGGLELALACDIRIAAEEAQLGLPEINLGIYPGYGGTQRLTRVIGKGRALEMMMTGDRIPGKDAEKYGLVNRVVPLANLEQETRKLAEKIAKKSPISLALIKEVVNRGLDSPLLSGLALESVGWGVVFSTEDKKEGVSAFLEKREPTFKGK

Row | stoichiometry N [1] | stoichiometry N [2] | Compound | X-ray crystal structure, 1.8 Å [3]
1 | 6 | 6 | 3-Hydroxypropionyl-CoA dehydratase from Metallosphaera sedula (enzyme) | –
2 | – | – | CC(C)(COP(=O)(O)OP(=O)(O)OC[C@H]1O[C@@H](n2cnc3c(N)ncnc32)[C@H](O)[C@@H]1OP(=O)(O)O)[C@@H](O)C(=O)NCCC(=O)NCCS [CoA] | In our current structure, the CoA molecule is tightly bound at the substrate binding site
